Measured values published in the supplement of paper PMC7877785.
± gives the uncertainty stated by the source.

Assay: self-splicing fitness, log relative to wild type (ln ratio); higher = more splicing; Tetrahymena group I intron in knt gene, E. coli kanamycin selection, DiMSum; sequences stand for … in CUCUCU…GGAGGGAAAAGUUAUCAGGCAUGCACCUGGUAGCUAGUCUUUAAACCAAUAGAUUGCAUCGGUUUAAAAGGCAAGACCGUCAAAUUGCGGGAAAGGGGUCAACAGCCGUUCAGUACCAAGUCUCAGGGGAAACUUUGAGAUGGCCUUGCAAAGGGUAUGGUAAUAAGCUGACGGACAUGGUCCUAACCACGCAGCCAAGUCCUAAGUCAACAGAUCUUCUGUUGAUAUGGAUGCAGUUCACAGACUAAAUGUCGGUCGGGGAAGAUGUAUUCUUCUCAUAAGAUAUAGUCGGACCUCUCCUUAAUGGGAGCUAGCGGAUGAAGUGAUGCAACACUGGAGCCGCUGGGAACUAAUUUGUAUGCGAAAGUAUAUUGAUUAGUUUUGGAGUACUCGUGGUCG
Method in brief: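 A randomised library covering all eight P1ex-region intron nucleotides was built with the intron in the knt kanamycin-resistance gene on pET-22b(+) and held in E. coli BL21(DE3). Cells were grown overnight at 37°C or 30°C on LB agar, with or without 25 μg/mL kanamycin, plus 100 μg/mL carbenicillin, 50 μM IPTG and 0.2% rhamnose, and pooled colonies were amplicon-sequenced on an Illumina HiSeq 2500. DiMSum fitness is the error-weighted combination of wild-type-normalised replicate fold changes, kanamycin versus none.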

Row | Sequence | self-splicing fitness (ln) (37 °C) | self-splicing fitness (ln) (30 °C)
1 | CAUAAGCAAUAUUACGUACU | -2 ± 0.32 | 
2 | CAUAAGCAAUAUUACGUAUG | -2.74 ± 0.23 | -3.87 ± 0.2
3 | CAUAAGCAAUAUUACGUCAU | -2.19 ± 0.19 | -3.67 ± 0.19
4 | CAUAAGCAAUAUUACGUGCA | -2.4 ± 0.18 | -3.45 ± 0.23
5 | CAUAAGCAAUAUUACGUGGG | -3.49 ± 0.18 | -3.38 ± 0.12
6 | CAUAAGCAAUAUUACGUUGA | -2.85 ± 0.16 | -3.55 ± 0.16
7 | CAUAAGCAAUAUUACGUUUA | -2.42 ± 0.28 | -2.97 ± 0.23
8 | CAUCAGCAAUAUUACGAAGA | -0.441 ± 0.15 | -2.97 ± 0.27
9 | CAUCAGCAAUAUUACGAAGC | -2.2 ± 0.41 | -3.23 ± 0.47
10 | CAUCAGCAAUAUUACGACGA | -0.863 ± 0.14 | -1.38 ± 0.16
11 | CAUCAGCAAUAUUACGAGAC | -2.73 ± 0.16 | -3.95 ± 0.23
12 | CAUCAGCAAUAUUACGAGCU | -2.3 ± 0.47 | -1.92 ± 0.26
13 | CAUCAGCAAUAUUACGAUUC | -0.269 ± 0.073 | -1.62 ± 0.071
14 | CAUCAGCAAUAUUACGCAAC | -1.59 ± 0.28 | 
15 | CAUCAGCAAUAUUACGCCUG | -0.495 ± 0.098 | -0.718 ± 0.092
16 | CAUCAGCAAUAUUACGCCUU | -0.379 ± 0.12 | -1.92 ± 0.12
17 | CAUCAGCAAUAUUACGCUCA | -0.924 ± 0.16 | -1.55 ± 0.18
18 | CAUCAGCAAUAUUACGCUUG | -1.03 ± 0.098 | -2.08 ± 0.084
19 | CAUCAGCAAUAUUACGGACG | -0.172 ± 0.08 | -0.594 ± 0.053
20 | CAUCAGCAAUAUUACGGCGC | -0.694 ± 0.15 | -2.95 ± 0.13
21 | CAUCAGCAAUAUUACGGGCG | -0.377 ± 0.074 | -0.567 ± 0.069
22 | CAUCAGCAAUAUUACGGGUC | -0.644 ± 0.1 | -2.63 ± 0.11
23 | CAUCAGCAAUAUUACGGGUU | -0.61 ± 0.08 | -1.8 ± 0.067
24 | CAUCAGCAAUAUUACGGUAG | 0.051 ± 0.085 | -0.362 ± 0.075
25 | CAUCAGCAAUAUUACGUAUC | -1.05 ± 0.098 | -1.9 ± 0.092

Row | Sequence | self-splicing fitness (ln) (37 °C) | self-splicing fitness (ln) (30 °C)
26 | CAUCAGCAAUAUUACGUGCU | -2.46 ± 0.21 | -3.71 ± 0.28
27 | CAUCAGCAAUAUUACGUUGU | -2.92 ± 0.16 | -3.52 ± 0.14
28 | CAUGAGCAAUAUUACGAAGG | -2.05 ± 0.21 | -3.17 ± 0.19
29 | CAUGAGCAAUAUUACGACAG | -1.02 ± 0.15 | -1.89 ± 0.13
30 | CAUGAGCAAUAUUACGACCU | -0.931 ± 0.26 | -2.47 ± 0.29
31 | CAUGAGCAAUAUUACGACUG | -0.743 ± 0.18 | -1.78 ± 0.13
32 | CAUGAGCAAUAUUACGAGGU | -3.11 ± 0.4 | -3.26 ± 0.33
33 | CAUGAGCAAUAUUACGAUCG | -0.399 ± 0.14 | -0.0708 ± 0.12
34 | CAUGAGCAAUAUUACGCACG | -0.67 ± 0.11 | -0.622 ± 0.097
35 | CAUGAGCAAUAUUACGCCUC | -1.75 ± 0.42 | 
36 | CAUGAGCAAUAUUACGCCUG | -2.02 ± 0.35 | -2.93 ± 0.21
37 | CAUGAGCAAUAUUACGCGAC | -2.84 ± 0.44 | 
38 | CAUGAGCAAUAUUACGCGUG | -2.71 ± 0.26 | -4.92 ± 0.36
39 | CAUGAGCAAUAUUACGCUAA | -2.94 ± 0.43 | 
40 | CAUGAGCAAUAUUACGGCAU | -2.9 ± 0.47 | -3.35 ± 0.34
41 | CAUGAGCAAUAUUACGGGAC | -1.95 ± 0.24 | -2.99 ± 0.18
42 | CAUGAGCAAUAUUACGGGCG | 0.178 ± 0.092 | -0.135 ± 0.075
43 | CAUGAGCAAUAUUACGGUAG | -0.949 ± 0.11 | -2.01 ± 0.1
44 | CAUGAGCAAUAUUACGGUCC |  | -3.81 ± 0.37
45 | CAUGAGCAAUAUUACGGUGC | -3 ± 0.26 | -3.35 ± 0.28
46 | CAUGAGCAAUAUUACGGUGU | -2.54 ± 0.23 | -4.27 ± 0.28
47 | CAUGAGCAAUAUUACGGUUG | -0.986 ± 0.12 | -1.97 ± 0.094
48 | CAUGAGCAAUAUUACGUAGA | -2.77 ± 0.21 | -4.22 ± 0.27
49 | CAUGAGCAAUAUUACGUAGC | -1.96 ± 0.26 | -1.64 ± 0.17
